Target: T1, G93A-hSOD1-CFP (human, UniProt P00441 2-154, G93A)
T1 construct: Transiently expressed in NSC-34 cells; FRET donor; also called G93A SOD1-CFP; pECFP-G93A-hSOD1; not shown: CFP (from pECFP plasmid) attached to the C-terminus of SOD1
Assay: FACS sorting of cells without G93A SOD1-CFP/MDH1-YFP FRET after transfection of the myc-tagged MDH1 peptide library

T1 sequence (P00441 2-154 G94A): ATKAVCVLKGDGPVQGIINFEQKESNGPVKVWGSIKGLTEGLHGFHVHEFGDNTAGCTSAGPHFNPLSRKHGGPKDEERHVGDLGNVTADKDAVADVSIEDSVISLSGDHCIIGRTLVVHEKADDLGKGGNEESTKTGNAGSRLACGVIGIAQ

B1: myc-tagged peptide 14-27 of cytMDH (peptide)
peptide: GQIAHSLLYSIGNG
notes: Expressed from a plasmid inside NSC-34 cells; also called myc-tagged 14-27 peptide; not shown: human myc tag in frame with the peptide
B1: binds.

B2: myc-tagged peptide 217-239 of cytMDH (peptide)
peptide: SWLKGEFITTVQQRGAAVIKARK
notes: Expressed from a plasmid inside NSC-34 cells; not shown: human myc tag in frame with the peptide
B2: binds.
